The data set deals with the molecule itself. Briefly: crystal structure.

One may read the stoichiometry N as a count of units in the complex or per binding partner.

B1: MIP-2/CXCL2 (murine macrophage inflammatory protein-2) (natural protein, UniProt P10889 28-100, looked up)
chain: AVVASELRCQCLKTLPRVDFKNIQSLSVTPPGPHCAQTEVIATLKGGQKVCLDPEAPLVQKIIQKILNKGKAN
Take B1: the “stoichiometry N” value is 2.

The values above are taken from PMC3511906 (Biochemistry, 2012).
